Assay results from US20120093814A1, “Fusion Proteins Comprising Canine FC Portions” (BOEHRINGER INGELHEIM INTERNATIONAL GMBH, priority 2009, published 2012).
Each block holds one molecule with its values, some of them ahead of it. Positions of bridges follow the written chain, without caps; N, C: chain ends. No end group written: not given here.

Columns and labels:
[1] = target: canine NPRA (natriuretic peptide receptor A), full length, stably expressed on HEK293 cells (canine (dog)); assay: cell-based or functional assay
[2] = Pharmacokinetics of ANP-caFc in conscious dogs following a single dose; format: in vivo, dog
Method: (§1) Dogs were administered a single IV dose (1 mg/kg or 17 nmol/kg) or SC dose (2.5 mg/kg or 42 nmol/kg) of ANP-caFc to assess PKPD over a period of 4 to 7 days. These doses were selected because they were similar to the dose-range employed to evaluate Cardeva (recombinant human serum albumin-BNP fusion protein) in dogs. […] The sensitivity of the ELISA used to reliably detect ANP-caFc in dog plasma was limited by having a minimum detection level in dog plasma of […]. In order to avoid plasma matrix effects, a minimum dilution of 1:50 was required when assaying beagle plasma. The linear range of the assay, in PBS, is […] to approximately 100 nM. In 2% beagle plasma the linear range of the curve is 1 nM to about 80 or 90 nM. FIG. 4 only provides an estimate of the estimated plasma levels and Table 2 presents the pharmacokinetics of ANP-caFc.

plasma cGMP = assay: Plasma cGMP levels in conscious dogs after IV and SC administration (preliminary PKPD); format: in vivo, dog; details: single SC dose 2.5 mg/kg
Method: as §1
Plasma cGMP following SC dosing appeared to be elevated above baseline ≧48 hours post-dose (FIG. 5).

[3] = test system: conscious telemeterized beagles; assay: Hemodynamic assessment in telemeterized conscious dogs (Study #1 and Study #2); format: in vivo, dog; details: for effect on HR (figure legend) / effect on mean arterial blood pressure (figure legend): Days 1-4 post-dose
Method: The criteria for dose selection was that the dose could not decrease mean arterial blood pressure more than 5-10 mmHg below baseline, and that it should increase plasma cGMP concentration approximately 1.5×-2× above baseline. […] In study #1, a total of 5 dogs were dosed subcutaneously with vehicle, or ANP-caFc at 0.5, 1 and 2.5 mg/kg based on a modified Latin square design over a 4-week period. This dose-range was chosen because it was expected to overlap the targeted plasma cGMP elevation based on the single dose dog PK study. The dosing interval was 7 days. One animal was excluded from the final data analysis due to a failure of telemetry device during the study. ANP-caFc produced a dose-dependent increase in peak plasma levels of cGMP (3.7-, 3.5- and 6.6-fold—of vehicle day value FIG. 6), a dose-dependent peak reduction in mean arterial blood pressure (MAP; −13±5, −19±4, and −20±5 mmHg vs. vehicle—FIGS. 7A and 7B), and peak heart rate was increased (+30 ±10, +29 ±9, and +25 ±9 beats per minute—FIGS. 8A and 8B).
Since the MAP decreased more than 10 mmHg during the peak effect for all three doses, Study #2 was performed with lower doses (0.05 and 0.25 mg/kg) in the same 4 dogs using a similar study design. […] The 0.05 mg/kg dose of ANP-caFc had no effect of MAP (1.9±1.4 mmHg), HR (1.8±0.6 beats per minute), or plasma cGMP. (Urine samples were also collected for cGMP excretion measurements, however, samples were contaminated by drinking water and could not be used.)

[4] = target: T1, canine NPRA (natriuretic peptide receptor A), full length, stably expressed on HEK293 cells (canine (dog), UniProt A0A8I3MHU3 32-1060); assay: cell-based or functional assay
T1 sequence: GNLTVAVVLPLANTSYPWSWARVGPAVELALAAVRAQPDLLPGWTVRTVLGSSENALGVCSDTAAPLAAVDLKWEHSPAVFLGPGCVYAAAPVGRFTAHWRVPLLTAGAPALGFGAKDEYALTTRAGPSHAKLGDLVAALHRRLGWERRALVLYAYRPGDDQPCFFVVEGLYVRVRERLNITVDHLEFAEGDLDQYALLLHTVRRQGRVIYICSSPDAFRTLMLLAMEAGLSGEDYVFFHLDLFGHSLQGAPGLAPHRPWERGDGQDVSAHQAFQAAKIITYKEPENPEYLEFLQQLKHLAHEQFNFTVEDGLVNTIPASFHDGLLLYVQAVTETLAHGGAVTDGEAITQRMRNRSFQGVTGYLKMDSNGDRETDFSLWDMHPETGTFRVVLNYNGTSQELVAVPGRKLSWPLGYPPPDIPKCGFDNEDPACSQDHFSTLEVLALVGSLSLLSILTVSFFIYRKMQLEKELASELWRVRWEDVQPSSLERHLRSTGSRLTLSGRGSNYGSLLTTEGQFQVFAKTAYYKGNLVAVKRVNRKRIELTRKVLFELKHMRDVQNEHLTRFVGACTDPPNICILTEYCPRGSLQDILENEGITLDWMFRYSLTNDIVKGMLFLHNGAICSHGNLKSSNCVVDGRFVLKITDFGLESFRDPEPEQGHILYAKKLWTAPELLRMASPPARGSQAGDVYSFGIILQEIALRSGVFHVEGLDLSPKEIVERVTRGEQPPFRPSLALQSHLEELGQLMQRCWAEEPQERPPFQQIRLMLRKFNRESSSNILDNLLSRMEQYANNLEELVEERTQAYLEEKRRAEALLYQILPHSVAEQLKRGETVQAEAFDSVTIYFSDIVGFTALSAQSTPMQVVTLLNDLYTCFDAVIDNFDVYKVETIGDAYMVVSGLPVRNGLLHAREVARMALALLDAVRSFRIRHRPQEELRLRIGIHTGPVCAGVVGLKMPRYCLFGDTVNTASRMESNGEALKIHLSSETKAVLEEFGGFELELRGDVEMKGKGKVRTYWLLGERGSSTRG

[5] = target: T1, canine NPRA (natriuretic peptide …); assay: cell-based or functional assay; remark: listed apart in the source
[6] = single IV dose 1 mg/kg (17 nmol/kg)
[7] = single SC dose 2.5 mg/kg (42 nmol/kg)

cGMP EC50 (nM), Dog NPRA; lot 8760-110.3 [1]: 3 nM
cGMP EC50 (nM), Dog NPRA; lot 8760-137 [1]: 2.5 nM
cGMP EC50 (nM), Dog NPRA; lot 8760-174 [1]: 5.4 nM
cGMP EC50 (nM), Dog NPRA; lot 9081-51 [1]: 8.3 nM
cGMP EC50 (nM), Dog NPRA; lot 9081-53 [1]: 9.4 nM
B1: ANP28-20aa-CalgGB-Fc (recombinant canine ANP28 - (GGS)6GG linker - canine IgG-B Fc fusion protein) (Fc fusion)
chain: SLRRSSCFGGRMDRIGAQSGLGCNSFRYGGSGGSGGSGGSGGSGGSGGCPKCPAPEMLGGPSVFIFPPKPKDTLLIARTPEVTCVVVDLDPEDPEVQISWFVDGKQMQTAKTQPREEQFNGTYRVVSVLPIGHQDWLKGKQFTCKVNNKALPSPIERTISKARGQAHQPSVYVLPPSREELSKNTVSLTCLIKDFFPPDIDVEWQSNGQQEPESKYRTTPPQLDEDGSYFLYSKLSVDKSRWQRGDTFICAVMHEALHNHYTQESLSHSPGK
modifications: C-terminal Lysine residue missing in all lots produced (mass spectrometry); Fc glycosylated (G0, G1, G2)

B2: ANP-caFc: canine ANP-Fc fusion protein dosed to dogs; Fc isotype not stated, nmol/kg doses fit the IgG-B fusion (protein)
chain: SLRRSSCFGGRMDRIGAQSGLGCNSFRYGGSGGSGGSGGSGGSGGSGGCPKCPAPEMLGGPSVFIFPPKPKDTLLIARTPEVTCVVVDLDPEDPEVQISWFVDGKQMQTAKTQPREEQFNGTYRVVSVLPIGHQDWLKGKQFTCKVNNKALPSPIERTISKARGQAHQPSVYVLPPSREELSKNTVSLTCLIKDFFPPDIDVEWQSNGQQEPESKYRTTPPQLDEDGSYFLYSKLSVDKSRWQRGDTFICAVMHEALHNHYTQESLSHSPGK
AUC [2, 6]: 2.0 ± 0.46 µM·h
MRT [2, 6]: 12.2 ± 1.9 h
T½ [2, 6]: 8.3 ± 2.0 h
Vss [2, 6]: 0.107 ± 0.013 L/kg
AUC [2, 7]: 6.1 ± 0.3 µM·h
MRT [2, 7]: 41.6 ± 1.0 h
T½ [2, 7]: 15.4 ± 1.8 h
time plasma cGMP elevated above baseline post-dose (plasma cGMP): ≥ 48 h
increase in peak plasma levels of cGMP, of vehicle day value ([3]; Study #1, SC 0.5 mg/kg): 3.7 fold
peak heart rate increase ([3]; Study #1, SC 0.5 mg/kg): +30 ±10 beats per minute
peak reduction in mean arterial blood pressure (MAP) vs. vehicle ([3]; Study #1, SC 0.5 mg/kg): −13±5 mmHg
increase in peak plasma levels of cGMP, of vehicle day value ([3]; Study #1, SC 1 mg/kg): 3.5 fold
peak heart rate increase ([3]; Study #1, SC 1 mg/kg): +29 ±9 beats per minute
peak reduction in mean arterial blood pressure (MAP) vs. vehicle ([3]; Study #1, SC 1 mg/kg): −19±4 mmHg
increase in peak plasma levels of cGMP, of vehicle day value ([3]; Study #1, SC 2.5 mg/kg): 6.6 fold
peak heart rate increase ([3]; Study #1, SC 2.5 mg/kg): +25 ±9 beats per minute
peak reduction in mean arterial blood pressure (MAP) vs. vehicle ([3]; Study #1, SC 2.5 mg/kg): −20±5 mmHg
effect on HR (figure legend) ([3]; Study #1, subcutaneous): dose-dependently increased
effect on mean arterial blood pressure (figure legend) ([3]; Study #1, subcutaneous): dose-dependently decreased
change in HR ([3]; Study #2, SC 0.05 mg/kg): 1.8±0.6 beats per minute
change in MAP ([3]; Study #2, SC 0.05 mg/kg): 1.9±1.4 mmHg
effect on plasma cGMP ([3]; Study #2, SC 0.05 mg/kg): no effect
change in MAP vs. vehicle ([3]; Study #2, SC 0.25 mg/kg): −6.6±1.6 mmHg
effect on plasma cGMP ([3]; Study #2, SC 0.25 mg/kg): moderate increase
increase in heart rate ([3]; Study #2, SC 0.25 mg/kg): 20±9 beats per minute
effect on HR (figure legend) ([3]; Study #2, subcutaneous): dose-dependently increased
effect on mean arterial blood pressure (figure legend) ([3]; Study #2, subcutaneous): dose-dependently decreased

EC50 in the canine NPRA cGMP assay [4]: ~1 nM
cGMP EC50 (nM), cGMP induction on canine NPRA cells [5]: 0.2 nM
Molecule: SLRRSSCFGGRMDRIGAQSGLGCNSFRY (disulfide 7-23 (inferred)) [canine ANP28]
